The numbers were not newly measured in PMC4664810, which cites them from elsewhere.

Usually Kd stands for the free concentration of one partner at which half of the binding sites on the other are occupied at equilibrium, for simple one-to-one binding.

The target in series [1] is CD20 (Homo sapiens) (UniProt P11836).
Series [2] has the same target. This is another data set of the same source.

Read-outs that look alike come from different tables or passages of the source.

Sequence of CD20 (Homo sapiens) (P11836 whole entry): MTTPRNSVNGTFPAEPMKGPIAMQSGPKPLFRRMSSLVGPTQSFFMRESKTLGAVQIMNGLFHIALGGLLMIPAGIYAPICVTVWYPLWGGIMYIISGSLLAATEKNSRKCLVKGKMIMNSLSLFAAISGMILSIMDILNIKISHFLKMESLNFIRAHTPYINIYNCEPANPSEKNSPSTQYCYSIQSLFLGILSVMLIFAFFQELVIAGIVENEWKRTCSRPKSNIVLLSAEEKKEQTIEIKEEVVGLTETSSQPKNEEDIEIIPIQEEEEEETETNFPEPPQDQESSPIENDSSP

As for rituximab, the dissociation constant Kd in the series with CD20 (Homo sapiens) [1] is 5.45 nM.

Take ofatumumab: the dissociation constant (Kd) with CD20 (Homo sapiens) [2] was 4.76 nM.
